# ± gives the standard deviation.
# Test: protein stability index of a GFP-peptide fusion (GPS, HEK-293T) (PSI 1-6); higher = more stable
# [1] = treatment: DMSO, c terminus: a fixed tail appended
# [2] = treatment: MLN4924 1 uM, 8 h, c terminus: a fixed tail appended
# [3] = treatment: DMSO, c terminus: native
# [4] = treatment: MLN4924 1 uM, 8 h, c terminus: native
# 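Note: 24-mer peptide tiles fused after GFP, lentivirally expressed, FACS-sorted into six equal bins by GFP/DsRed ratio, decoded by Illumina sequencing, PSI is the read-weighted mean bin number.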
Sequence,protein stability index [1],protein stability index [2],protein stability index [3],protein stability index [4]
MDNNRNLDLDSIIDEVRTQYEEIA [KRT71],4.14 ± 0.26,4.13 ± 0.17,,
NRRRFRVRQPILQYRWDMMHRLGE [BEX1],2.31 ± 0.15,2.17 ± 0.29,,
GKHPKDKTEDENKQSFLDGGKGHH [TOR1AIP2],5.4 ± 0.34,5.55 ± 0.22,,
WVLEPVLEGWRPDQLYRRKKDNHA [ELOA2],2.51 ± 0.31,3.34 ± 0.14,,
LKTQMKMSLKCLAARAVRANDINY [FEM1B],3.02 ± 0.44,2.67 ± 0.16,,
SGWIFFYVPSSESFIIYLKNIVIA [P2RY14],3.26 ± 0.53,3.09 ± 0.88,,
ALPPLRTRSKSDPVLHPSEERAAP [FAM189A2],5.64 ± 0.39,5.58 ± 0.2,,
MKIKQDRASRTYELQNQLAACTRA [FSD1],3.52 ± 0.12,3.62 ± 0.38,,
HGPFSGFPGPQEHTQVLPDVRLLP [DYRK1B],3.57 ± 0.099,3.63 ± 0.21,,
EHDRETRMQYAPDLMKRLRFALIP [KLHL14],2.77 ± 0.26,2.56 ± 0.16,,
TTTRRIVDGKVVSETNDTKVLRH [KRT18],,,5.19 ± 0.24,5.28 ± 0.3
HSVNRDLNELERLSNLVGKPSENH [MED27],4.75 ± 0.18,4.71 ± 0.11,,
ILNTTGTYSGKAADVWSLGVMLYT [TRIB1],2.7 ± 0.76,2.25 ± 0.6,,
TSITLTASRVSKVNDKRRKKSGEK [KMT2E],4.04 ± 0.28,4.47 ± 0.17,,
LVMPLEEKLTKITRTGPSAWETKK [PCMTD2],3.79 ± 0.21,3.75 ± 0.23,,
VGDIVSFMHSFEEKYGRAHPVFYQ [FAF2],2.04 ± 0.34,2.17 ± 0.22,,
ILGRTFFIYDCDPFTRRYYKEKFG [EFHC1],2.52 ± 0.63,2.24 ± 0.63,,
QLVLRTKEAFDTIQEQKVVLEENG [SASS6],4.45 ± 0.23,4.64 ± 0.46,,
LAATTSMAYAKLMLTVMTKYQANI [FANCE],2.92 ± 0.32,3.26 ± 0.72,,
LNIVPRTKVVYLASETFNYSAIDR [PI4K2A],2.28 ± 0.18,2.07 ± 0.2,,
HTMRKISNNITLREDQLDTVLAVL [INTS4],2.39 ± 0.27,2.35 ± 0.21,,
VGSALHRESFTSRQKTSGPSVIQE [C10orf62],4.18 ± 0.15,4.46 ± 0.2,,
LNVRSEEQVFNAVMAWVKYSIQER [KLHL20],2.54 ± 0.77,2.42 ± 0.23,,

Sequence,protein stability index [1],protein stability index [2],protein stability index [3],protein stability index [4]
FAKAKPEIPWTSLTRKGLVRVVFF [PHTF1],3.41 ± 0.51,3.29 ± 0.84,,
RNLAKRRRTYLGGAAGRSQEPEVP [RSPH3],4.38 ± 0.26,4.32 ± 0.2,,
SVDGLTLSPDPEERPGAEGAPLLP [ACBD3],5.46 ± 0.19,5.54 ± 0.18,,
KMEEDIKEEEEKDHNEAMKPEEPP [PCMTD1],5.57 ± 0.15,5.58 ± 0.31,,
ASSGSNSSASSEQGLLGRSPPTRP [SPRY1],5.19 ± 0.34,5.38 ± 0.2,,
VGEIVGIITRHNLTYEFLQARLRQ [CLCN6],2.73 ± 0.64,2.67 ± 0.85,,
GVLTRKTHADMDGKRTPRGRRGWK [PSD2],4.47 ± 0.29,4.53 ± 0.29,,
PGDCFLLLVLLLYAPVGFCLLVLR [AUP1],3.1 ± 0.44,3.13 ± 0.35,,
SPICLSTSLSLAQVGAKGDTANEI [SERPINB5],4.68 ± 0.15,4.54 ± 0.21,,
RYRGRGSEEYRAPRPQSEESWDEE [CHGB],5.28 ± 0.51,5.34 ± 0.33,,
TEPWGGTAIRPLKILPWSPEKIGT [PNLIPRP1],3.45 ± 0.26,3.65 ± 0.36,,
KAFADPEVLRRLTSSVSCALDEAA [ANKRD17],3.08 ± 0.34,3.18 ± 0.21,,
TGNYRKGNAHLGYSLVTHIPAGAR [ADAMTSL2],2.95 ± 0.17,2.69 ± 0.3,,
ELVLRKDCPKIVEPHGKMFNEQTW [ZSCAN9],2.86 ± 0.38,2.78 ± 0.3,,
CFARKSQLTGHQRIHSGEEPHKCP [ZNF449],3.64 ± 0.1,4.01 ± 0.18,,
GLRLCRPKAKAKAKAKAKDQTKAQ [RPL29],3.91 ± 0.23,4.16 ± 0.34,,
PGEGLLISWAFTDRPDLSLTVLPK [C2CD2L],2.64 ± 0.48,2.37 ± 0.44,,
LATQEPTDNQVRLRKRKEIREDRD [DLC1],5.41 ± 0.24,5.39 ± 0.16,,
LLHLAVNSNTPVDDFHTNDVCSFP [FEM1B],2.85 ± 0.25,2.74 ± 0.12,,
CFKNWDGSPVSSWILLAESNSADD [OAS1],3.04 ± 0.24,3.38 ± 0.4,,
SSSSFDPSVFDGLGDLLMPTMAPA [SNAP91],3.55 ± 0.25,3.72 ± 0.33,,
DRDREEEENRLREELRQEWEAKQE [FAM50A],5.45 ± 0.5,5.63 ± 0.16,,
DDLETMPDDLLTTLDDTCDLFAPL [ATF4],5.01 ± 0.088,5.08 ± 0.16,,

Sequence,protein stability index [1],protein stability index [2],protein stability index [3],protein stability index [4]
DVYRDGTGVVEFVRKEDMTYAVRK [SRSF1],3.96 ± 0.26,4.47 ± 0.18,,
FCDRCCSQKVPLRRMCFVDPVRQC [ZFYVE21],2.29 ± 0.14,2.04 ± 0.15,,
QNLANEEVRKLTQRLEEMTQRMEA [MATN2],4.67 ± 0.14,4.87 ± 0.39,,
ARAFAQRYLADLLPSVFGSLRDSG [RSPH3],2.29 ± 0.41,2.25 ± 0.28,,
SVNSDCETYMSADDLRINLWHLAI [PPP2R2C],2.52 ± 0.54,2.29 ± 0.21,,
EEILTLFCGAPPVTPIIVLSIINF [PHTF1],2.84 ± 0.26,2.97 ± 0.51,,
GQILELPWKEETFLVLQSLLERQV [FANCE],1.9 ± 0.35,2.1 ± 0.34,,
SFSRPADLDLIQSTPFKPLALKTP [MFF],3.19 ± 0.46,3.5 ± 0.048,,
LEQRGTHAVVGVATALAPLQTDHY [SPSB2],3.6 ± 0.31,3.65 ± 0.15,,
IVKAMASPESGLEVRDRMLLKITI [DVL3],3.12 ± 0.44,2.9 ± 0.55,,
LFSIAPLIYGSMEMFPAAQQLYRH [JAGN1],2.55 ± 0.41,2.6 ± 0.57,,
DLDAWSILIREAQNQPIDKARKTY [CSTF3],2.8 ± 0.34,3.04 ± 0.66,,
SYRTESAQRQACMYASSAPPSEPV [TBX5],3.79 ± 0.16,4.07 ± 0.24,,
AAAAAHSTPVRREVTDKEQEFAAR [EPB41L3],5.28 ± 0.47,5.18 ± 0.56,,
VQDYSYFFFLRMDENYNLLPHGVN [CCDC3],2.38 ± 0.48,2.48 ± 0.37,,
SPNFDGWFKTRRKEMTQKLEALHL [DENND6A],2.91 ± 0.18,3.2 ± 0.41,,
GCYAYRQNPEAIAAAAMYTFLPDN [MYORG],2.61 ± 0.34,2.46 ± 0.29,,
HWFRKGLRLHDNPALKECIQGADT [CRY1],3.11 ± 0.19,3.45 ± 0.38,,
PVYSVPQLLSAMGSLCSLWFGASV [SCNN1D],3.06 ± 0.056,3.37 ± 0.59,,
VTADDFVQTSVIGSNGYILNKPAL [EHMT1],3.11 ± 0.26,3.13 ± 0.25,,
MTTCSRQFTSSSSMKGSCGIGGGI [KRT16],2.41 ± 0.5,2.33 ± 0.16,,
PRICQRNLMSLLMAVRPSLPESGL [FANCE],2.4 ± 0.6,2.21 ± 0.27,,
KELEKRREESQHEIKDVLVWTNDQ [PPFIA4],5.27 ± 0.17,5.25 ± 0.21,,

Sequence,protein stability index [1],protein stability index [2],protein stability index [3],protein stability index [4]
LLKAGAEVNVLNDMRDTPLHRAAF [OSBPL1A],3.12 ± 0.24,3 ± 0.17,,
ILSFILAIPEAIGFVMVPFEYRGE [EDNRA],3.6 ± 0.94,3.15 ± 0.51,,
ADDLVLTLSNPQMSLEGTEKASWL [ELF3],3.62 ± 0.29,3.85 ± 0.26,,
RLLDHQDNILSLINVNDLSFVTGS [WDR41],2.22 ± 0.28,2.51 ± 0.3,,
VKDDELDAMLKEASGPINFTMFLN [MYL5],3.39 ± 0.082,3.5 ± 0.19,,
YGRSDVVVLCFSIANPNSLNHVKS [RHOBTB1],3.21 ± 0.43,2.64 ± 0.69,,
RAGVQWKFAGSFYFAITVITTIGY [KCNK9],3.03 ± 0.064,3.11 ± 0.4,,
QTLLPAACLLQLAEIQEACCEFLK [KLHL20],2.21 ± 0.31,2.36 ± 0.15,,
FTSSPSPFSSSSPENVEDSGLDSP [FCHO1],2.86 ± 0.94,3.81 ± 0.87,,
PVKPVTFSTGIKMGQHISLAPIHK [MNAT1],2.96 ± 0.34,2.96 ± 0.32,,
KCQHYKKKRTEQEETIASLQMEVC [CEP70],4.008 ± 0.008,4.02 ± 0.56,,
FRQMATALAHCHQHGLVLRDLKLC [TRIB3],2.21 ± 0.38,2.03 ± 0.3,,
NCMAEKRETVLIETQLKACASFIR [C8orf76],2.23 ± 0.32,2.25 ± 0.45,,
TKRVRQLLDLDPEVECLKANTNEV [GOLPH3],4.29 ± 0.32,4.62 ± 0.22,,
TLCAMLPLLLFTYLNSFLHQRIPQ [SLC29A1],3.18 ± 0.14,3.06 ± 0.17,,
ALRPTAFSGCLNCSKVSELTERLK [EMID1],2.74 ± 0.37,2.97 ± 0.47,,
YMHVGSCQHLSSSAEELRKARSNS [KCNA3],3.95 ± 0.11,4.37 ± 0.22,,
SQSPRAAGPREGHSHSHHHHHRG [PBXIP1],,,3.02 ± 0.69,4.03 ± 0.49
EVIVFGGCANNLLVHHRAAHSNEI [KLHDC2],2.13 ± 0.19,2.2 ± 0.26,,
EYEAGRAGPGGGAERRRAGRLLLT [ESRRA],4.23 ± 0.37,4.33 ± 0.18,,
